This series in a line: yeast display, Sf9 membrane polyspecificity reagent, FACS + sequencing; frameworks hold sequencing errors. In a few lines: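 Nanobodies from a synthetic yeast display library (Saccharomyces cerevisiae BJ5465), induced 36–48 hours with galactose, were stained 1 hour at 4 °C with 10% biotinylated, detergent-solubilized Sf9 membrane reagent, enriched on streptavidin microbeads, then FACS-sorted. Anti-HA (expression) and streptavidin (reagent binding) fluorescence set low and high (top ~1%) gates. Polyreactivity labels come from the gate of origin. Genes were colony-PCR amplified, MiSeq 2 × 250 sequenced and filtered by CDR length.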
In the case of “QVQLVESGGGLVQAGRSLRLSCAASGRTFGYNPMGWYRQAPGKEREFVAAISYSGTSTYYADSVKGRFTISRDNAKNTVYLQMNSLKPEDTAVYYCNAEALISWRYDYWGQGTQVTVSS”, the “polyreactivity (PSR sort gate)” value is “low polyreactivity”.

“QVQLVESGGGLVQAGGSLRLSCAASGSIFWKNVMGSYRQAPGKERELVAGISQNGGSTTYADSVKGRFTISRDNAKNTVYLQMNSLKPEDTAVYYCAAKRYGPFKYGYWGQGTQVTVSS”: the “polyreactivity (PSR sort gate)” value is reported as “high polyreactivity”.

As to “QVHLVESGGGLVQAGGSLRLSCAASGRTLRSYAMGWYRQAPGKERELVAAINWRDTNTYYADSVKGRFTISRDNAKNTVYLQMNSLKPEDTAVYYCAARYYSRGWRYNYWGPGTQVTVSS”, the “polyreactivity (PSR sort gate)” value is recorded as “high polyreactivity”.

For the sequence “QVQLVESGGGLVQAGGSLRLSCAASGITFRSYAMGWNIQAPGKERELVAAITTGTRTYYADSVKGRFTISRDNAKNTVFLQMKSLKPEDTAVYYCARDGVGRVYGYLTPLGYDYWGHGTQVTVSS”, the “polyreactivity (PSR sort gate)” value was “low polyreactivity”.

With “QVQLVESGGGLVQAGGSLRLSCAASGSTFWINAMGWYRPAPGKEREFVAAIRWNGGSTNYADSVKGRFTHSRDNAKNTVYLPMNSLKPEDTAVYYCAADGYIGWRHIYEYWGQGTQVTVSS”, the “polyreactivity (PSR sort gate)” value is given as “low polyreactivity”.

On to “QVQLVESGGGLVQAGGSLRLSCAASGLIFYPNGMGWYRQAPGKERELVAAITYSDGSTYYADSVKGRCTISRDNAKNTVYLQMNSLKPEDTAVYYCTARWGYRRGYWGQGTQVTVSS”, for which the “polyreactivity (PSR sort gate)” value is listed as “high polyreactivity”.

Consider “QDQLVESGGGLVQAGGSLRLSCAASGRTFTSNAMGRYRQAPGKERELVAAINFRGDSTYYADSVKGRFTISRDNAKNTVYLQMNSLKPEDSAVYYCAAVGGRSSYRLDYWGQGTQVTVSA”, for which the “polyreactivity (PSR sort gate)” value was “low polyreactivity”.

“QVQLVESGGGLVQAGGSLRLSCAASGSTFGTYAMGWYRQAPGKERELVAAISSGGSTYYADSVKGRFTISRDNAKNTVYLQMNSLKPEDTAVYYCAAGYYWYVWGFGYWGQGTQVSVSS”: the “polyreactivity (PSR sort gate)” value is listed as “low polyreactivity”.

As for “QDQLVESGGGLVQAGGSLRLSCAATGSTFPSNAMGWYRQAPGKEREFVATIRFSGGSTYYADSVKGRFTISRVNAKNTVDLQMNSLKPEDTAVYYCAARFYSSAYWYDYWGQGTQVTVSS”, the “polyreactivity (PSR sort gate)” value is given as “high polyreactivity”.

Regarding “QVQLVESGGGLVQAGGSLRLSCAASGGTFKYYTMGWYRQAPGKERELVAAISSGGITYYADSVKGRFTISRDNAKNTVYLQMNSLKPEDTAVYYCNVVSYYIAGGWYEGDYWGQGTQVTVSS”, the “polyreactivity (PSR sort gate)” value was “low polyreactivity”.

Take “QVQLVESGGGLVQAGGSLRLSCAASGIILFRYAMGWYRQAPGKERELVAAISWSGGSTYYADSVKGRFTISRDNAMNTVYLQMNCLKPEDTAVYYCAADHKYYGFGEVDYWGQGNQVTVSS”: the “polyreactivity (PSR sort gate)” value was “high polyreactivity”.

On to “QVQLVESGGGLVQAGGSLRLICAASGRTLYLYAMGWSRQAPGKEPELVAAIDWRGTSTYYADSVKGRFTISRDNAKNTVYLQMNSLKPEDTAFYYCNARFRSYLRWYQRDYWGQGTQVTVSS”, for which the “polyreactivity (PSR sort gate)” value is listed as “low polyreactivity”.

Take “QVQLVETGGGLVQAGGSLRLSCAASGRIFKVYAMGWYRQAPGKERELDAAITSRGGSTYYADSVKGRFTISRDNAKNTVYLQMNSLKPEDTAVYYCAAARGLPSNKYYYWGQGTQVTVSS”: the “polyreactivity (PSR sort gate)” value was “high polyreactivity”.

With “QDQLVESGGGLVQAGGTLRLSCAASGRTFYLYAMAWYRQAPGKERELVAAISSGASTYYADSVKGSFTISRDIAKNTVYLQMNSLKPDDTAVYYCAAEFCPQWSGYEYWGQGTLVTVSS”, the “polyreactivity (PSR sort gate)” value was “high polyreactivity”.

For the sequence “QVQLVESGGGLVQAGGSLRLSCAASGITFYVNTKGWYRQAPGKEREVVAAIDWTDGGTYYADSVKGRFTISRDNAKNTVYLQMNSLKPEDTAVYYCALDYYWDIIGLYGYLAYDLDYWGQGTQVTVSS”, the “polyreactivity (PSR sort gate)” value is recorded as “low polyreactivity”.

With “QVQLVETGGGLFQAGGSLRISCAASGFIFTLYAMGWYRQAPGKERELVAAINSGGSTDYADSVKGRFTISRDNAKNTVYLQMNSLKPEDTAVYYCAAGNTYAGSDYWGQGTQVTVSS”, the “polyreactivity (PSR sort gate)” value is on record as “low polyreactivity”.

With “QVQLVESGGGLVQAGGSLRLSCAASGSTLTPNAMGWYRQAPGKERELVAAISRSGGSTYYADSVKGRFTISRDNAKNTVYLQRNSLKPEDTAVYYCRGYYIGIRAYGYWGQGTQVTVSS”, the “polyreactivity (PSR sort gate)” value is “high polyreactivity”.

Regarding “QVQLVESGGVLVQAGGSLRLSCAASGRIFDYYAMGWYRKAPGKERELVAAITSGGTTTYYADSVKGRFTISRDNAKNTVYLQMKSLKPEDTAVYYCAKYPYHIYHTEGDYWGQATQVTVSS”, the “polyreactivity (PSR sort gate)” value is listed as “low polyreactivity”.

As to “QVQLVESGGGLVQAGGSLRLSCAASGSIFWGYAMGWYRQAPGKERELVAVITWSVGRTYYADSVKGRFTISRDNAKNTVYLQMNSLKPEDTAVYYCNAKSWYGGSYYRYDYWGQGTQVTVSS”, the “polyreactivity (PSR sort gate)” value is given as “low polyreactivity”.

Take “QVQLVESGGGLVQAGGSLRLSCAASGSIFYWNAMGWYRQAPGKERELVAGISQRGGRTSYADSVKGRFTISRDNAKNTVYLQMNSLKPEDTAVYYCAATSVYPRSGSSRYDYWGQGTQVTVSS”: the “polyreactivity (PSR sort gate)” value is recorded as “low polyreactivity”.

Turning to “QVQLVESGAGLVQAGGSLRLSCAASGRTFSGYAMGGYRQAPGKERELVAAISWRGGRTYYADSVKGRFTISRDNAKNTVYLLMYSLKPEDTAVYYCNTVGHVYYGEFDYWGQGTQVTVSS”, the “polyreactivity (PSR sort gate)” value was “high polyreactivity”.

Turning to “QVQLVESGGRLVQAGGSLRLSCAASGRIFGRYAMGWYRQAPGKERELVAAISSSGGSTYYADSVKGRFTISRDNAKNTVYLQMNSLKPEDTAVYYCAAEIIKVAYRVAYYYWGQGTQVTVSS”, the “polyreactivity (PSR sort gate)” value is listed as “high polyreactivity”.

“QVQLVESGGGLVQAGGSLRLSCAASGRIFPFYDMGWYRQAPGKERELVAAITSGTGTYYADSVKGRFTISRDNAKNTVYLQIYSLKPEDTAVYYCNARRYLRGYWGQGTQVTVSS”: the “polyreactivity (PSR sort gate)” value is “low polyreactivity”.

Turning to “QVQLVESGGGLVQAGGSLRLSCAASGSIFRGYTMGGYRQAPGKETELVAAISRSGGSTYYADSVKGRFTISRDNAKNTVYLQMNSLKPEDTAVYYCAADSFRTRAIYDYWGQGTQVTVSS”, the “polyreactivity (PSR sort gate)” value is listed as “high polyreactivity”.

Consider “QVQLVESGGGLVQAGGSLRLSCAASGITFEGYALGWYRQAPGKERELVAAIRSSGTSTYYADSVKGRFTISRDIAKNTVYLQMNSLKPEDTAVYYCNRARSSSRYDYWGQGTQVTVSS”, for which the “polyreactivity (PSR sort gate)” value is recorded as “low polyreactivity”.

For the sequence “QVQLVESGGGLVQAGGSLRLSCAASGRTFYANAMVWYRQAPGKERELVAGISYSGGNTYYADSVKGRFTISRDNAKNTVYIQMNSLKPEDTAVYYCAAATVWEYWTYEDWGQGTQVTVSS”, the “polyreactivity (PSR sort gate)” value is “low polyreactivity”.

“QVQLVESGGGLVQAGGSLRLSCAASGNTFSPYGMGWYRQAPGKERELVAGITISDDSTYYADSVKGRFTISRDNAKNTVYLQMNSLKPEDTAVYYCNARYLSWYFKYLYDYWGQGTQVTVSS”: the “polyreactivity (PSR sort gate)” value is recorded as “low polyreactivity”.

On to “QVQLVESGGGLVQAGGSLRLSCAASGLILYWYAMGWYRQAPGKERELVAVITRSGRTNYADSVKGRFTSSRDNAKNTVYLQMNSLKPEDTAVYYCAADYYTSFYSWPPYDYWGQGTQVTVSS”, for which the “polyreactivity (PSR sort gate)” value was “low polyreactivity”.

For “QVQLVESGGGLVQAGGSLRISCAASGITFYANVMGWYRQAPGKARELVAAISARRGSTYYADSVKGRFTISRDNAKNTVYLQMNSLKPEDTAVYYCATREAYRQQGGYGYWGQGTQVTVSS”, the “polyreactivity (PSR sort gate)” value is “high polyreactivity”.

“QVQLVETGGGLVQAGGSLRLSCAASGFIFRKYAMGWYRQAPGKERELVAAITASGGSTYYADSVKGRFTISRDNAKNTVYLQMNSLKPEDTAVYYCATDYHGAERWLKYVYWGQGTQVTVSS”: the “polyreactivity (PSR sort gate)” value is “high polyreactivity”.

Regarding “QVQLVESGGGLVQAGGSLRLSCAASGLTFDHNVMGWYRQAPGKERELVAAISRSGSSTYYADSVKGRFTISRDNAKNTVYLQMNSLKPEDTAVYYCAASDKRIYNLLRRYYYWGQGTQVTVSS”, the “polyreactivity (PSR sort gate)” value is on record as “high polyreactivity”.

For the sequence “QVQLVESGGGLVQAGGSLRLSCAASGSIVYYAMGWYRQAPGKERELVAAINTSGGSTYYADSVKGRFTISRDNAKNTVYLQMNSLKPEDTAVYYCAAVYVGYITGFKRGYWGQGTQVTVSS”, the “polyreactivity (PSR sort gate)” value is “high polyreactivity”.

Consider “QVHLVESGGGLVHAGGSLRLSCAASGIIFSYYAMGWYRQAPVKERELVAAISRSGVRTYFSDSVKGRFTISRDNAKNTVYLQMNSLKPEDTSVYYCNAEFSPYPYDYWGQGTQVTVSS”, for which the “polyreactivity (PSR sort gate)” value is on record as “high polyreactivity”.

Take “QVQLVESGGGLVQAGGSLRLSCAASGRIFRYYAMGWYRQAPGKERELVAAISGNGGRTSYADSVKGRFTISRDTAKNTVYLQMNSLNPEDTAVYYCAKYPVQSDYLFDHWGQGTQVTVSS”: the “polyreactivity (PSR sort gate)” value is “high polyreactivity”.

For “QVQLVESGGGLVQAGGSLRLSCAASGLIFDGNAMGWYRPAPGKERELVADITGSSVRTYYADSVKGRFTISRDNAKNTVSLQMNSLIPEDTAVYYCAATYGYLYTGLSRYDYWGQGTQVTVSS”, the “polyreactivity (PSR sort gate)” value is “low polyreactivity”.

For the sequence “QVQLVESGGGLVQAGGSLRLTCAASGRTFRPYAMGGYRQAPGKERQLVAAITYSGGSTYYADSVKGRFTISRDNAKNTVYLQMNSLKPEDTAVYYCAAEIAATYRPEYDYWGQGTQVTVSS”, the “polyreactivity (PSR sort gate)” value is “high polyreactivity”.

For “QVQLVESGGGLVQAGGSLRLSCPSSGFTFSAYAMGWYRQAPGKERELVAAISTRGGSTRYADSVKGRFTISRDNAKNTVNVQMNSLTPDDTAVYYCAADTRSFYRYDYWGQGTQVTVSS”, the “polyreactivity (PSR sort gate)” value is listed as “high polyreactivity”.

Consider “QVQLVESGGGLVQAGGSLRLSCAASGSTFSYNAMGWYRQAPGKERELVAAITSTGRTYYADSVKGRFTITRDNAKNTVYLQMISLKPEDTAGYYCNKVYYRFYSADFGYGWYLRYDYWGQGTQVTVSS”, for which the “polyreactivity (PSR sort gate)” value is reported as “high polyreactivity”.

Take “QVQLVESGGGLVQAGGSLRLSCAASGSIFSTYAMGWYRQAPGKERELVAAISVSGSSTYYADSVKGRFTISRDNAKNTVYLQMNSLKPEDTAVYYCAADVPYGASIISYDYWGQGTQVTVSS”: the “polyreactivity (PSR sort gate)” value is listed as “low polyreactivity”.

Consider “QVQLVESGGGLVQAGGSLRLSCAASGRIFKKYAMGWYRQAPGKERELVATISSGGSTYYADSVKGRFTISRDNSKNTVYLQMNSLKPEDTAVYYCARREYVRRDYFVTTYDYWGQGTQVTVSS”, for which the “polyreactivity (PSR sort gate)” value is reported as “low polyreactivity”.

For the sequence “QVQLVESGGGLVQAGGSLRLSCAASGSTFQYNAMGWYRQAPGKERELVAVISGSGSRTYYADSVKGRFTISRDNAKNTVYLQMNSLKPEDTAVYYCAKQRGGEPRSSTYYYWGQGTQVTVSS”, the “polyreactivity (PSR sort gate)” value is recorded as “high polyreactivity”.
